Consider 15 molecules from article PMC9712074 (Cell Reports, 2022).

Changes are numbered by the printed parent chain.

The target of this assay is SARS-CoV-2 (WT) Spike RBD Protein (His Tag) (SARS-CoV-2 ancestral (Wuhan-Hu-1), UniProt P0DTC2).

B1: BD55-5233 (antibody, V domains shown)
VH: EVQLLESGGGLVQPGGSLRLSCAASGFTFSRSSMGWVRQAPGKGLEWVSTISEDGYTPYYADSVKGRFTISRDNSENRLFLQMNGLRAEDTALYYCAKDVDFDKWRQTCFDSWGQGALVTVSS
VL: QSVLTQPPSVSGAPGQRVTISCTGSNSNIGAGYDVHWYQQLPGTAPKLLIYGNNNRPSGVPDRFSGSKSGTSASLAITGLQAEDEADYYCQSYDSSLNVLYVFGTGTRVTVL
On to B1, for which the binding result is given as “binds”.

B2: BD55-5245 (antibody, V domains shown)
VH: QVQLVQSGAEVKKPGSSVKVSCKASGGSLSSDGINWVRQAPGQGLEWLGRIIPIPGIADNAQKFQGRVTITADKSTSTAYMELSSLRSEDTAVYYCARAPPRGYSGYDLLGNDAFDIWGQGTMVTVSS
VL: B1 VL with N26S, I50L, N54T, S65T, S95T, N98S, V99G, L100S, R108K, T110A
For the molecule B2, the binding result was “binds”.

B3: BD55-5238 (antibody, V domains shown)
VH: QEQLVESGGGVVQPGRSLRLSCAASGLTFSSYAMHWVRQAPGKGLEWVAVIWYNGLKKYYADSVKGRFTISRDNYKNTAYLQMSSLRAEDTAVYYCAREGGGDILTGNEFEFWGQGTLVTVSS
VL: QSVLTQPPSVSGAPGQTVTISCTGGSSNTGAGYDVHWYQQLPGTAPKLLIFANKNRPSGVPDRFSGSKSGTSASLSITGLQAEDEGDYYCQSYDSSLSGWVFGGGTKVTVL
For the molecule B3, the binding result was “binds”.

B4: BD55-5248 (antibody, V domains shown)
VH: QVQLVESGGGVVQPGRSLRLSCAASGFTFSSYDMYWVRQAPGKGLEWVAVISYDGSSNFYADSVKGRFTISRDNSRNTLSLQMNSLRAEDTAVYFCARERREQLTPVFDHWGQGTLVTVSS
VL: DIQMTQSPSSLSASVGDRVTITCRASQSISSYLNWYQQRPGKAPKLLIYSASTLESGVPSRFSGSGSGTDFTLTINSLQPEDFATYYCQQSYSTLALTFGGGTKVEIK
As to B4, the binding result is recorded as “binds”.

B5: BD55-5236 (antibody, V domains shown)
VH: QVQLVQSGAEVKKPGSSVKVSCKASGGTFTSQAISWVRQAPGQGLEWMGRIITVLGTTTYAQKFQGRLRITADRSTNTAYMDLTGLTSDDTAVYFCARDLDGYSGYDFGSSERRDSFYFDYWGQGTLVNVPS
VL: SSELTQDPPVSVALGQTVRITCQGDSLRTYYASWFQQKPGQAPLLVVYGKNYRPSGIPARFSGSFSGNTASLTITGAQAEDEADYYCNSRDSNNDHHVIFGGGTKLTVL
As for B5, the binding result is given as “binds”.

B6: BD55-5256 (antibody, V domains shown)
VH: QVQLVQSGTEVKKPGSSVKVSCKASGGPFSGYVINWVRQAPGQGLEWMGGIIPVFETVKYAQKFQGRVTITAGESASTAYMELNSLRSEDTAVYYCAKSKYHSGYDVLTGRADFSLPFDYWGQGTLVTVSS
VL: DIQMTQSPSSLSASVGDRVIITCQASQDITNSLSWYQQKPGKAPKLLIYGAFNLETGVPSRFSGSGSGTDFTFAISSLQPEDIATYFCQQYADLPYTFGQGTKLDIK
For the molecule B6, the binding result was “binds”.

B7: BD55-5219 (antibody, V domains shown)
VH: QVQLVQSGSELKRLGASVTLSCKASGYTFTNYAINWVRQAPGHGLQWMGWINPDTGTPTYAQGFAGRFVFSLDSSVSTSYLQIRSLKADDTAVYYCARDANQWPRNQWFGPWGQGTLVTVSS
VL: DIVLTQSPDSLAVSLGERATINCKSSHSVFYSSSNQNDLAWYQQKPGQPPKLLIYWASIRESGVPDRFSGSGSGTDFTLTISSLQAEDVAVYYCQQHYSTPLTFGGGTKVEIK
As to B7, the binding result is “binds”.

B8: BD55-5242 (antibody, V domains shown)
VH: QVQLVQSGAEVKKPGASVKVSCKAFGYTFNSNYIHWVRQAPGQGLEWMGVIDPSGGATSYAQKFQGRVTMTRDTSTNTVYMELSSLRSEDTAVYYCARDLGDDVSRGYSGYDFLDLYGMDVWGQGTTVTVS
VL: not shown
For the molecule B8, the binding result was “binds”.

B9: BD55-5228 (antibody, V domains shown)
VH: QVHLVQSGSELKKPGASVKVSCKSSGHTFTIFAINWVRQAPGQGLEWMGWINTNTGNPTYAQGFTGRFVFSLDTSVNTAYLQISSLQPEDTAVYYCVGSNWGDYYFDPWGQGTLVTVSS
VL: EIVMTQSPATLSVSPGERATLSCRASYSLSSNLAWYQQKPGQAPRLLIYGASIRATGFPARFSGNGSGTEFTLTISSLQSEDFAVYYCQQYTSWPLTFGQGTKVEIK
In the case of B9, the binding result is listed as “binds”.

B10: BD55-5226 (antibody, V domains shown)
VH: EVQLVESGGGLVKPGGSLRLSCAASGFTFSSYSMNWVRQAPGKGLEWVSSISMTSSYRHYADSVRGRFTISRDNANNSLFLQMNSLRAEDTAVYFCARDSNLRTGDANDYWGQGTLVTVSS
VL: not shown
With B10, the binding result was “binds”.

B11: BD55-5251 (antibody, V domains shown)
VH: QITLKESGPALVKPTQTLTLTCTFSGFSLSSNGVGVGWIRQSPGKALEWLALIYWDDDKRYTPSLKKRLTVTKDTSKNQVVLTMTNMDPVDTATYYCAHMARPRGLFINPSWFDPWGQGTLVTVSS
VL: QSVLTQPPSASGTPGQRVTISCSGSSSNIGSNTIDWYQQLPGTAPRLLIYGHDLRPSGVPDRFSGSQSGTSASLVISGLQSEDEADYYCAAWDDSLNGPVFGGGTKLTVL
In the case of B11, the binding result was “binds”.

B12: BD55-5239 (antibody, V domains shown)
VH: QVQLQESGPGLVRPSQTLSLTCSVSGGSISSGTYNWAWIRQPPGKDLEWIGHIYHSGSTYYNPSLRSRVNMSVDTSKNQFSLKLSSVTAADTAVYYCARERGPIAEFDFWGQGILVTVSS
VL: DIQMTQSPSSVSASIGDGVTITCRASQGISSWLAWYQQRPGKAPKLLISAAFTLQSGVPSRFSARGSGTDFTLIISNLQPEDFATYYCQQANSFPPTFGQGTKLEIK
Turning to B12, the binding result is recorded as “binds”.

B13: BD55-5215 (antibody, V domains shown)
VH: EVQLVESGGGLGQPGGSLRLSCAASGFTFSRYGMGWVRQAPGKGLEWVSVISGSGGATYYADSVKGRFTISRDNSKNTLFLQMNSLRVEDTAVYYCAKDGGQLQLVEIFTFDPWGRGTLVTVSS
VL: DIQMTQSPSSLSASVGDRVTITCRASQGIRNSLAWYQQKPGKAPKLLLYAASRLESGVPSRFSGSGSGTDYTLTISSLQPEDFATYYCQQYYSAWTFGQGTKVEIK
Turning to B13, the binding result is “binds”.

B14: BD55-5223 (antibody, V domains shown)
VH: EVQLLESGGGWVQPGGSLRLSCAASGFTFSSYAMSWVRQAPGKGLEWVSAISNTGGSTYYADSVKGRFTVSRDDSKNTLYLQMNSLRAEDTAVYYCAKNWDSIGYTSGWQHLDWFDPWGQGTLVTVSS
VL: DIQMTQSPSSLSASVGDRVTITCRASQSINTYLNWYQQKPGKAPKLLIYVASSLQSGVPSRFSGSGSGTDFTLTISSLQPEDFATYYCQQSYSSPSITFGQGTRLEIK
Turning to B14, the binding result was “binds”.

B15: BD55-5250 (antibody, V domains shown)
VH: QVQLVQSGAEVKKPGASVKVSCKASGYTFTSNAIHWVRQAPGQRLEWMGWIMADNGYTKYSENFQGRVTITRDTSASTVYMEVSSLRSGDTAVYYCAREGSMWYSTYFDHWGQGTLVTVSS
VL: DIQMTQSPSSLSASVGDRVTITCRASQSISSYLTWYQQKSGTAPKLLIYAASSLQSGVPSRFSGSGSGTDFTLTISSLQPEDFATYYCQQSYTDPFTFGPGTKVDFK
On to B15, for which the binding result is on record as “binds”.
